The target in assay [1] is T1, recombinant human CD70 (Flag-TNC-CD70) (human, UniProt P32970 39-193).
T1 construct: extracellular domain; Captured by anti-Flag mAb in ELISA; as 'recombinant human CD70' immobilised on Biacore CM5 chips; TNC is for trimerisation; also called recombinant CD70; human recombinant CD70; not shown: Flag tag and TNC trimerisation domain
T1 sequence (looked up): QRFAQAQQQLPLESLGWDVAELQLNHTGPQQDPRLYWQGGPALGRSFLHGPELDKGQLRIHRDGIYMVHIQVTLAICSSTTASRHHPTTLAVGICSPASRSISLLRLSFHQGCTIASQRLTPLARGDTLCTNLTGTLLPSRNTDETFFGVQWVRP
Put plainly: blocking ELISA; human Flag-TNC-CD70; competitor CD27-Fc. As to the method: In this assay, a microtiter plate (Nunc Maxisorb) was first coated with 100 μl anti-FLAG M2 monoclonal antibody (Sigma Aldrich, F3165) at 1250-fold dilution in PBS (to achieve a final concentration of approximately 3.5 μg/ml) overnight at 4° C. The plate was washed once with PBS-Tween and incubated at RT for 2 hours with 300 μl PBS-1% casein. The plate was washed a further three times with PBS-Tween. 100 μl of 5 ng/ml (80 pM) Flag-TNC-CD70 (The Journal of Immunology, 2009, 183: 1851-1861) diluted in PBS-0.1% casein was added to the plate and incubated at RT for 1 hour while shaking. The plate was washed five times with PBS-Tween. The CD70 mAb to be tested was added to the plate; various concentrations were achieved by diluting the stock antibody solution in PBS-0.1% casein. Immediately thereafter, 50 μl of 1 μg/ml (final concentration 6.5 nM) recombinant human CD27 Fc chimera (R&D systems 382-CD, MW=46.5 kDa) was added, and incubated at RT for 1 hour while shaking. The plate was washed five times with PBS Tween. 100 μl of biotinylated anti-CD27 (eBioscience 13-0271), diluted 500-fold in PBS-0.1% casein, was added, and the plate incubated at RT for a further hour, while shaking. The plate was washed five times with PBS Tween. […] 100 μl TMB was added to the plate and the OD at 620 nm was measured. […]
(In general: An ELISA detects its analyte on a solid surface through an enzyme-linked reagent.)

The target in assay [2] is T2, human-mouse CD70 chimera chim-2.1 (Flag-TNC-CD70) (Soluble homotrimer held by the TNC domain; one CD70 ECD chain is given.).
T2 construct: also called chimera 2.1; not shown: N-terminal Flag tag, TNC (tenascin-C) trimerisation domain and any linkers of the Flag-TNC-CD70 construct
T2 chain: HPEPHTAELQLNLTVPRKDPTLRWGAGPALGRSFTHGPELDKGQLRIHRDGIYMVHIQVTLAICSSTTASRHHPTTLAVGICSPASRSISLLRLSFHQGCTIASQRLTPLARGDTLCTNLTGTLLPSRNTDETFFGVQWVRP
Description: ELISA; chimera captured by anti-Flag mAb; anti-human-Fc-HRP. As to the method: (§1) A Maxisorb (Nunc) microtiter plate was coated with 3.5 μg/ml mouse M2 anti-Flag mAb (Sigma Aldrich, F3165) and the different chimeras were captured. A dilution series of the CD70 mAbs to be tested was applied starting at a concentration of 10 μg/ml and making 3-fold dilutions. After 2 hours, binding was detected using anti-human-Fc-HRP at a 16000-fold dilution. Staining was done with ABTS and OD at 405 nm was measured. As a positive control, CD27-Fc was applied which is able to bind to both human and mouse CD70 with good affinity as well as to the chimeric human-mouse CD70 variants.

The target in assay [3] is T3, human-mouse CD70 chimera chim-1 (Flag-TNC-CD70) (Homo sapiens (Human), UniProt P32970 58-193, Soluble homotrimer held by the TNC domain; one CD70 ECD chain is given.).
T3 construct: also called chimera 1; not shown: N-terminal Flag tag, TNC (tenascin-C) trimerisation domain and any linkers of the Flag-TNC-CD70 construct
T3 chain: T2 chain with T35L
The assay is described as above. As to the method:
as §1

Assay [4] deals with T4, human-mouse CD70 chimera chim-2.2 (Flag-TNC-CD70).
T4 construct: also called chimera 2.2; not shown: N-terminal Flag tag, TNC trimerisation domain and any linkers of the Flag-TNC-CD70 construct
T4 chain: T2 chain with D41E, K42E, Q44H
The assay is described as above. As to the method: as §1

The target of assay [5] is T5, human-mouse CD70 chimera chim-2.4 (Flag-TNC-CD70).
T5 construct: also called chimera 2.4
T5 chain: T2 chain with D41E, K42E, Q44H, R49Q, I52L, M54R, V55L
The description is as above. As to the method:
as §1

In assay [6] the target is T6, human-mouse CD70 chimera chim-2.3 (Flag-TNC-CD70).
T6 construct: also called chimera 2.3
T6 chain: T2 chain with D41E, K42E, Q44H, R49Q, I52L
Described as above. As to the method:
as §1

Residue numbers refer to the chain shown, from its start.

This is an account of results in US20150266963A1 (ARGEN X B V, published 2015).

A word on the IC50: it is the concentration needed to halve the response being measured. Usually EC50 stands for the concentration at which the effect is half-maximal. A higher EC50 goes with lower potency in that assay.

B1: ARGX-110 (non-fucosylated 41D12 human IgG1) (antibody, V domains shown)
VH: EVQLVESGGGLVQPGGSLRLSCAASGFTFSVYYMNWVRQAPGKGLEWVSDINNEGGTTYYADSVKGRFTISRDNSKNSLYLQMNSLRAEDTAVYYCARDAGYSNHVPIFDSWGQGTLVTVSS
VL: QAVVTQEPSLTVSPGGTVTLTCGLKSGSVTSDNFPTWYQQTPGQAPRLLIYNTNTRHSGVPDRFSGSILGNKAALTITGAQADDEAEYFCALFISNPSVEFGGGTQLTVLG
notes: also called 41D12 (ARGX-110)
Turning to B1, in assay [1], the concentration for half-maximal inhibition (IC50) amounted to 0.039 µg/mL. Moreover, the half-maximal effective concentration (EC50) was found to be 0.015 µg/mL in assay [2]; 0.027 µg/mL in assay [3]; 0.016 µg/mL in assay [4]; 0.014 µg/mL in assay [5]; 0.015 µg/mL in assay [6].
